Laboratory results taken from the supplement of paper PMC10567573.
± gives the standard deviation.

Assay: protein stability index of a GFP-peptide fusion (GPS, HEK-293T) (PSI 1-6); higher = more stable
[1] = treatment: DMSO, c terminus: a fixed tail appended
[2] = treatment: MLN4924 1 uM, 8 h, c terminus: a fixed tail appended
[3] = treatment: DMSO, c terminus: native
[4] = treatment: MLN4924 1 uM, 8 h, c terminus: native
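Note: 24-mer peptide tiles fused after GFP, lentivirally expressed, FACS-sorted into six equal bins by GFP/DsRed ratio, decoded by Illumina sequencing, PSI is the read-weighted mean bin number.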

Sequence	protein stability index [1]	protein stability index [2]	protein stability index [3]	protein stability index [4]
NRRRFRVRQPILQYRWDMMHRLGE [BEX1]	2.31 ± 0.15	2.17 ± 0.29	–	–
LHILARDVHNRIVIRGLNTIPLFV [CTNNB1]	2.73 ± 0.48	2.68 ± 0.56	–	–
ENLFTGEDLDELEEELNTLDLEE [ZC3H15]	–	–	4.26 ± 0.32	4.65 ± 0.32
KSEGLSGRVLRKLPFLAHALYVQA [TRIP13]	2.3 ± 0.58	2.13 ± 0.42	–	–
TTREIRRQEAIYEMSRGEQDLIED [NET1]	5.25 ± 0.16	5.13 ± 0.17	–	–
SLGIELHCNVSNILHMNGSQSSTY [ZNF396]	2.18 ± 0.38	2.16 ± 0.27	–	–
RTHINAVVAKIQAKIPGAKRHAE [RTN1]	–	–	2.74 ± 0.25	3.04 ± 0.36
SRRDESYSRGYRNRRSSRETREYA [RBMY1A1]	4.5 ± 0.32	4.64 ± 0.31	–	–
GDRPRWQRLLGEDKFQWLAGLAPP [ANKRD9]	2.85 ± 0.35	2.7 ± 0.3	–	–
NRVWSISQEPDPVQRLQAYTATEQ [TRIM14]	4.09 ± 0.31	3.97 ± 0.31	–	–
SRVTMILFVLELEWVLSTGQDKQF [WDFY2]	3.1 ± 0.31	3.09 ± 0.66	–	–
VDICHMLVQFCRLGSPRSRGCLW [EHMT1]	–	–	2.67 ± 0.14	2.71 ± 0.66
GVQKMNSKTVTSTMLGVFREDPKT [GCH1]	4.43 ± 0.45	4.05 ± 0.33	–	–
RALVRQFGQQDWKFLASHFPNRTD [MYBL2]	3.09 ± 0.41	2.93 ± 0.19	–	–
QVGTMALWASQREKEVLRRERAVE [ZBED2]	4.11 ± 0.26	4.31 ± 0.18	–	–
GVEPSPSPIKPGDIKRGIPNYEFK [UFD1]	4.25 ± 0.24	4.24 ± 0.24	–	–
EAFCHANCSGPAPAAKPDPDGGRA [P3H4]	4.82 ± 0.15	4.79 ± 0.19	–	–
HQRKHAGEKPFECRQRLIFEQTPA [ZNF8]	3.65 ± 0.2	3.64 ± 0.16	–	–
ALHPERAMDNHSDSEEELAAFCPQ [RETREG3]	5.42 ± 0.12	5.37 ± 0.24	–	–
ASAIKKEELVARSETHAAGHSQEK [CHGB]	5.4 ± 0.43	5.37 ± 0.31	–	–
FKTGNSTATCTTNNNPNSCVNIKK [KCNA3]	4.53 ± 0.15	4.58 ± 0.36	–	–
AFQITGVWDASRAPRGTPDPGLGE [PLEKHN1]	3.85 ± 0.31	3.78 ± 0.21	–	–

Sequence	protein stability index [1]	protein stability index [2]	protein stability index [3]	protein stability index [4]
AYSLNKIHAYNLGTNAWEEIATKP [KLHDC10]	2.56 ± 0.39	2.79 ± 0.57	–	–
IKEQEVCKLQEQLEATVKKLEESK [SASS6]	5.1 ± 0.27	5.05 ± 0.25	–	–
MNEHPVCSRTWTNRLCHQEMGSKK [SPAG8]	3.94 ± 0.28	4.09 ± 0.12	–	–
GKVEAQHILASAPTDRNLCHFQAL [PYCR3]	2.7 ± 0.25	3.04 ± 0.31	–	–
QGAKERAHQQKKHSGFEDELSEVL [CHGA]	5.23 ± 0.25	5.27 ± 0.23	–	–
EYEAGRAGPGGGAERRRAGRLLLT [ESRRA]	4.23 ± 0.37	4.33 ± 0.18	–	–
VYNANINLFCVLRLVVEFPATGGA [PKD2L1]	3.05 ± 0.41	3.13 ± 0.71	–	–
SRTTCLFLHLRTHTEERPYECNHC [ZNF8]	2.62 ± 0.45	2.8 ± 0.43	–	–
KCQHYKKKRTEQEETIASLQMEVC [CEP70]	4.008 ± 0.008	4.02 ± 0.56	–	–
EKQSRCVNIEWHRFRFGQDQLLLA [WSB1]	2.14 ± 0.24	2.6 ± 0.42	–	–
CINIPGSYVCRCKQGYILNSDQTT [MATN2]	2.43 ± 0.17	2.4 ± 0.35	–	–
ASAQPLPAPEAAHTTGPTGSAPNS [TFE3]	5.35 ± 0.18	5.46 ± 0.15	–	–
VHETPAASKTVFFFFSSPGNNNGT [BTBD1]	2.37 ± 0.3	2.15 ± 0.31	–	–
AVWLIFFMLGLGTLLPWNFFMTAT [SLC29A1]	3.09 ± 0.66	2.6 ± 0.12	–	–
HHRYDDLVRTLYKVQNECPGITRV [CPN1]	2.69 ± 0.34	2.67 ± 0.098	–	–
CLPAGPRVYFLKGGYETFYSEYPE [DUSP5]	2.29 ± 0.22	2.28 ± 0.31	–	–
SNIVIMLVGNKSDLRHLRAVPTDE [RAB11A]	2.42 ± 0.34	2.25 ± 0.28	–	–
SSSSFDPSVFDGLGDLLMPTMAPA [SNAP91]	3.55 ± 0.25	3.72 ± 0.33	–	–
VTADDFVQTSVIGSNGYILNKPAL [EHMT1]	3.11 ± 0.26	3.13 ± 0.25	–	–
EMERTQAQLRDAVQSLQLSPRTRG [RASAL3]	4.96 ± 0.36	4.77 ± 0.49	–	–
SKIGSTDNIKYQPKGGQVQIVTKK [MAP2]	4.37 ± 0.17	4.63 ± 0.18	–	–
RTMRLWNIEEIDEIPLVIKYKKAV [WDR88]	2.3 ± 0.4	2.26 ± 0.31	–	–

Sequence	protein stability index [1]	protein stability index [2]	protein stability index [3]	protein stability index [4]
HKQDGKAGLFSQEQYERNKSSSSS [TMEM40]	5.3 ± 0.35	5.31 ± 0.15	–	–
KMGSYYINRTFFFDVHPPLGKMLI [POMT2]	2.95 ± 0.75	3 ± 0.46	–	–
LFEDIVAREYYSEADASHCIQQIL [CAMK2A]	2.36 ± 0.069	2.62 ± 0.35	–	–
FLGHHSFSVRPGTEATISIREDEV [SCNN1D]	2.42 ± 0.64	3.12 ± 0.52	–	–
IKAEPASPDSPKGSSETETEPPVA [ESRRA]	5.58 ± 0.17	5.62 ± 0.11	–	–
EGSYRIHVLHHGTGKWYELQDLQV [USP39]	2.73 ± 0.69	2.58 ± 0.77	–	–
TTTRRIVDGKVVSETNDTKVLRH [KRT18]	–	–	5.19 ± 0.24	5.28 ± 0.3
PGDCFLLLVLLLYAPVGFCLLVLR [AUP1]	3.1 ± 0.44	3.13 ± 0.35	–	–
QGLAEKSPLQTIGEEQTQNPYTEL [WDR41]	5.3 ± 0.14	5.29 ± 0.13	–	–
TDRSFNIVDIKPANMEDLTEVITA [PPP2R2C]	4.42 ± 0.14	4.37 ± 0.15	–	–
LEYLYTANVTLSLDTVEEVLSVSK [KLHL14]	2.41 ± 0.66	1.96 ± 0.36	–	–
GRDDLESFQLEISGFLKEMACPYS [FAM98B]	2.29 ± 0.3	2.67 ± 0.75	–	–
GLLICLPREQAARFCSEIKSSKYG [SEPHS2]	2.04 ± 0.28	2.17 ± 0.55	–	–
VAHCHQSAIVLGDLKLRKFVFSTE [TRIB1]	2.25 ± 0.36	2.36 ± 0.63	–	–
LKIDFGDSARADDARQLFVLAGAA [GNAI1]	2.59 ± 0.37	2.68 ± 0.27	–	–
EGSCYQTFRQYCGAACTCHVRNPL [RNF208]	2.4 ± 0.37	2.6 ± 0.2	–	–
GSSDHSVIMWDIGGRKGTAIELQG [WDFY2]	2.84 ± 0.43	2.83 ± 0.2	–	–
IDTVYSTAFAPKMIVDLLSEKKTI [OR4A15]	2.37 ± 0.19	2.52 ± 0.26	–	–
MWYPEIKHFCPRAPVILVGCQLDL [RHOBTB2]	3.24 ± 0.81	2.77 ± 0.28	–	–
LKTQMKMSLKCLAARAVRANDINY [FEM1B]	3.02 ± 0.44	2.67 ± 0.16	–	–
SLELDKMAHGYGEESEEERGLEPG [CHGB]	5.49 ± 0.46	5.41 ± 0.19	–	–
